Results taken from the Human Domainome abundance scans (Beltran et al. 2025).

B1: Gamma-crystallin C, residues 91 to 170; numbered along this chain, P07315 (parent)
chain: RLYEREDHKGLMMELSEDCPSIQDRFHLSEIRSLHVLEGCWVLYELPNYRGRQYLLRPQEYRRCQDWGAMDAKAGSLRRV

Variants of: B1
Test: abundance fitness (aPCA) (normalised: wild type 0, dead -1); higher = more abundant; growth selection in yeast, the domain comes from the species named
Details: Homo sapiens

Abundance fitness: each site, then its substitutions
Y44: R -0.478 | S -0.568 | T -1.04 | V -0.784 | W -0.599
E45: A -0.191 | D -0.265 | G -0.492 | H -0.582 | I -0.762 | K -0.465 | L -0.875 | M -0.792 | N -0.933 | P -0.832 | Q -0.211 | R -0.437 | S -0.149 | T -0.118 | W -0.644
L46: A 0.023 | C -0.075 | D -0.43 | E 0.04 | F 0.047 | G -0.27 | K -0.051 | M -0.188 | N -0.767 | Q -0.262 | R -0.146 | T -0.863 | V -0.98 | W -0.237 | Y -0.162
P47: A -0.07 | C -0.109 | D -0.178 | L -0.601 | Q -0.348 | R -0.502 | T -0.449 | V -0.591 | W -0.832 | Y -0.891
N48: A -0.348 | C -0.339 | D -0.007 | E -0.314 | F 0.077 | G -0.07 | H -0.022 | K -0.215 | P -0.65 | Q -0.017 | R -0.234 | S -0.238 | T -0.823 | V -0.929 | W -0.151 | Y -0.006
Y49: A -1.04 | C -0.914 | E -0.734 | G -1.11 | H -0.94 | K -0.918 | L -0.906 | M -0.981 | N -0.198 | P -0.942 | Q -0.85 | R -0.9 | S -0.891 | V -0.969 | W -0.551
R50: A -0.066 | C -0.021 | E -0.068 | F -0.375 | G 0.04 | K -0.029 | L -0.063 | M -0.108 | N -0.242 | P -0.916 | Q -0.012 | S -0.007 | T -0.002 | V -0.085 | W -0.664 | Y -0.606
G51: A -0.833 | C -0.695 | H -0.752 | L -0.807 | P -1.03 | R -0.589 | S -0.962 | T -0.49 | V -0.93 | W -0.268
R52: A 0.009 | C -0.587 | D -0.338 | E -0.28 | G -0.402 | H -0.324 | I -0.31 | L -0.219 | N -0.031 | P -0.093 | Q -0.128 | S -0.234 | T -0.058 | V -0.137 | W -0.523
Q53: A -0.122 | C -0.219 | D -0.241 | E 0.087 | F -0.425 | G -0.103 | H -0.386 | K -0.19 | L -0.78 | M -0.345 | N 0.005 | P -0.144 | R -0.092 | S 0.074 | T -0.197 | V -0.747 | W -0.225 | Y -0.159
Y54: A -0.891 | E -1.19 | F -0.118 | G -0.968 | I -0.395 | K -0.76 | L -0.727 | M -0.692 | P -1 | Q -0.783 | R -0.897 | S -0.614 | T -0.717 | W -0.36
L55: A -0.09 | C -0.241 | D -0.441 | E -0.074 | F -0.078 | G -0.082 | H -0.053 | I 0.075 | K -0.161 | M -0.01 | Q -0.067 | S -0.08 | T 0.1 | V -0.087 | W -0.098 | Y 0.161
L56: A -0.939 | E -0.93
